Assay results published in paper PMC1669761 (Nucleic Acids Research, 2006).

Biological target: T1, purified His-tagged Smad4 (human, UniProt Q13485 1-552)
T1 sequence (looked up): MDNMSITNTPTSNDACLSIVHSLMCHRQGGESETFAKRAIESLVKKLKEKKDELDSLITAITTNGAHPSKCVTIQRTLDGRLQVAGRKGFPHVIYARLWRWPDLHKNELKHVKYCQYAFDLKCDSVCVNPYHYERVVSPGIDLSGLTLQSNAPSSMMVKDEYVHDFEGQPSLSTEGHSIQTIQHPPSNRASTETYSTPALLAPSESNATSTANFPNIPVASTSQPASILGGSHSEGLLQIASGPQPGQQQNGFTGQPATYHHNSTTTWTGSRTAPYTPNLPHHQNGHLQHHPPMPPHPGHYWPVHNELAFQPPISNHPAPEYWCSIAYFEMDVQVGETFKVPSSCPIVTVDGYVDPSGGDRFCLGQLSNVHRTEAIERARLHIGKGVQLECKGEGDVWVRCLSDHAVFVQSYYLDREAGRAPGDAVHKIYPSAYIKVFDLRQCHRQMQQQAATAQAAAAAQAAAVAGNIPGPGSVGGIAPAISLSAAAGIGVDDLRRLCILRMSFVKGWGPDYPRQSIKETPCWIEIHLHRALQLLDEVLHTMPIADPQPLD
Assay: pull-down

B1: GST-RBPMS(1–100) (domain or fragment)
chain: not shown
B1: binds.
